Test results from the supplement of paper PMC10126150.
± gives the standard deviation of the averaged measurements.

The sequences below were run on ATP (assay: switch fluorescence ratio, 500 uM ATP over buffer (Cy3 cluster intensity, sum of 5 cycles each) (fold (ratio)); higher = stronger signal-on switching upon ATP binding; sequences stand for … in TCGTCGGCAGCGTCAGATGTGTATAAGAGACAGTTTTTTTTTTTTTTTTTTTTTTTTT…TC). Details: aptamer strand: ATP DNA aptamer (quencher-CACCTGGGGGAGTATTGCGGAGGAAGG + anchor), 100 nM annealed; ATP concentration: 500 uM.
In short: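 Clusters with intensities outside 100-1000 RFU were excluded. The remaining Cy3-labelled switching-strand clusters on a modified Illumina MiSeq flow-cell had been annealed to 100 nM quencher-labelled ATP aptamer and imaged in selection buffer, then after 15 min with 500 uM ATP at 22 °C, for five cycles separated by NaOH stripping and re-annealing. The fluorescence ratio, averaged per switch-domain sequence, is each cluster's summed target-cycle Cy3 intensity over its summed buffer-cycle Cy3 intensity.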
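Note: ATP exposure 15 min at 22 °C before imaging.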

Sequence	switch fluorescence ratio
GCAAGTAGAG	1.0067 ± 0.001
GCAAGTCTGA	1.03 ± 0.019
GCAAGTTGAT	0.96591 ± 0.00067
GCAAGTTTCA	0.996 ± 0.034
GCAATAATCG	1.98 ± 1.4
GCAATAATTA	1.1 ± 0.046
GCAATATGTA	1.62 ± 0.11
GCAATGAACC	1.84 ± 0.078
GCAATGGGTG	1.35 ± 0.027
GCAATTCAGA	1.064 ± 0.0099
GCAATTGGGA	1.05 ± 0.017
GCAATTGTTT	1.02 ± 0.039
GCAATTTTAG	1.03 ± 0.035
GCAATTTTTT	1.03 ± 0.032
GCACAAGTTG	1.02 ± 0.019
GCACACGGGG	1.01 ± 0.07
GCACATGAAC	1.1 ± 0.022
GCACGAGGAA	1.043 ± 0.0063
GCACGCGAAG	1.04 ± 0.024
GCACGGAGGG	1.01 ± 0.023
GCACGGGACT	1.184 ± 0.011
GCACGGGAGG	1.01 ± 0.032
GCACGGGGCG	1.03 ± 0.034
GCACGTGACC	1.47 ± 0.048
GCACGTGCGT	1.02 ± 0.035

Sequence	switch fluorescence ratio
GCACTGGTGG	1.02 ± 0.032
GCACTGTGGG	1 ± 0.016
GCACTTGTTT	1 ± 0.028
GCACTTTACG	1.28 ± 0.06
GCAGAAAAAT	1.04 ± 0.023
GCAGAGGGGG	1.04 ± 0.029
GCAGAGGGTG	1.13 ± 0.086
GCAGATCGAT	1.03 ± 0.015
GCAGCATGTG	1.04 ± 0.026
GCAGCCGAAT	1.04 ± 0.0093
GCAGCTGGTG	1.098 ± 0.00094
GCAGCTGTTT	1.02 ± 0.044
GCAGGAAGTC	0.994 ± 0.0039
GCAGGAATGG	1.113 ± 0.0098
GCAGGAGTGG	0.9929 ± 0.0088
GCAGGCCTGA	1.01 ± 0.029
GCAGGCTACA	1.02 ± 0.019
GCAGGGAAGG	1.03 ± 0.035
GCAGGGAATT	1 ± 0.045
GCAGGGATTG	0.9734 ± 0.0058
GCAGGGCGCC	1.01 ± 0.026
GCAGGGGGAA	1.08 ± 0.053
GCAGGGGGCA	1.024 ± 0.01
GCAGGGGGGG	1.05 ± 0.054
GCAGGGGGTT	1 ± 0.028

Sequence	switch fluorescence ratio
GCAGGTGGTG	1.08 ± 0.062
GCAGTAAAAC	1.694 ± 0.013
GCAGTATACC	1.15 ± 0.019
GCAGTCACAG	1.03 ± 0.029
GCAGTGAGGG	0.991 ± 0.028
GCAGTGGGGA	1 ± 0.031
GCAGTGTACG	0.997 ± 0.0087
GCAGTTAGCC	1.01 ± 0.034
GCAGTTGGGA	1.02 ± 0.011
GCAGTTTTAG	0.999 ± 0.027
GCATAATGAT	1 ± 0.022
GCATAATGGG	1.008 ± 0.0057
GCATAGGGAA	1 ± 0.015
GCATAGGGAT	0.988 ± 0.022
GCATATTGGG	0.9866 ± 0.0042
GCATCAAGTG	0.988 ± 0.034
GCATCACGAG	1.08 ± 0.03
GCATCAGGGA	1.02 ± 0.035
GCATGAAGCA	1 ± 0.017
GCATGAATCT	1.014 ± 0.0084
GCATGACTTT	1.06 ± 0.028
GCATGAGGTG	1.08 ± 0.021
GCATGCAGGG	1.01 ± 0.045
GCATGCGCTC	1.05 ± 0.052
GCATGGGGCC	1 ± 0.011

Sequence	switch fluorescence ratio
GCATGGGTGG	1 ± 0.023
GCATGTACTC	3.36 ± 0.63
GCATTAAAGG	0.981 ± 0.04
GCATTATCCA	1.01 ± 0.031
GCATTGGGGT	0.994 ± 0.012
GCATTGGTCA	1.027 ± 0.0076
GCATTGTCAA	0.992 ± 0.07
GCATTGTGTT	0.991 ± 0.052
GCATTTGGGA	0.99 ± 0.012
GCATTTGGTT	1.01 ± 0.012
GCATTTTACA	1 ± 0.013
GCATTTTATA	1.02 ± 0.012
GCATTTTTTT	0.996 ± 0.032
GCCAAAGACA	0.9573 ± 0.0053
GCCAAAGATT	1 ± 0.029
GCCAATGGGC	1 ± 0.051
GCCAATTGCA	0.97965 ± 0.00047
GCCACACAAT	1.022 ± 0.0014
GCCACAGCTG	1 ± 0.013
GCCACGTCAA	1.06 ± 0.067
GCCAGAGATA	1.0422 ± 0.00051
GCCAGAGTG	2 ± 0.44
GCCAGCCGAC	1.2 ± 0.032
GCCAGGAAAA	0.957 ± 0.053
GCCAGGCCGA	0.979 ± 0.034
